Assay: yeast display, Sf9 membrane polyspecificity reagent, FACS + sequencing; frameworks hold sequencing errors
Outline: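 Synthetic nanobody libraries on Saccharomyces cerevisiae BJ5465 were galactose-induced for 36–48 hours, stained 1 hour at 4 °C with 10% biotinylated, detergent-solubilized Sf9 membrane reagent and enriched on streptavidin microbeads. FACS then separated cells into low and high (top ~1%) gates by anti-HA (expression) and streptavidin (reagent binding) fluorescence. Genes were colony-PCR amplified, MiSeq 2 × 250 sequenced and CDR-length filtered. A clone's polyreactivity label is that of its gate of origin.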
With “QVQLVESGGGLVQAGGSLRLSCAASGSTFWTNAMGWYRQAPGKERQLVAASTEDGGSTYYADSVKGRFTISRDNAKNTVYLQMNSLKREVTAVYYCATVIGYLDDYLFPYPVPYYYWGQGTQVTVSS” the “polyreactivity (PSR sort gate)” value was “low polyreactivity”. With “QVQLVESGGGLVQAGGSLRLSCAASGSTFWWYAMGWYRQAPGKERELVAAISIGGATKYADSVKGRFTISRDNAKNTFYLQMNILKPEDTAVYYCAAVVSYHYVPYGYWGQCTQVTVSS” the “polyreactivity (PSR sort gate)” value was “low polyreactivity”. For “QVQLVESGGGLVQAGGSLRLSCAASGSTFWWYAMGWYRQAPGKERELVATIRDGGSTNYADSVKGRFTISRDNAKNTVYLQMNSLKPEDTAVYYCNADVYPYYRKPWMDYWGQGTQVTVSS”, the “polyreactivity (PSR sort gate)” value was “low polyreactivity”. In the case of “QVQLVESGGGLVQAGGSLRLSCAASGSTFWYNAMGWYRQAPGKERELVAAITTRGDSTYYADSVKGRFTISRDNAKNTVYLQMNSLKPEDTAVYYCAADWAWYSYDWYYWYDYWGQGTQVTVSS”, the “polyreactivity (PSR sort gate)” value is reported as “high polyreactivity”. With “QVQLVESGGGLVQAGGSLRLSCAASGSTFWYYAMGWYRQAPGKERELDADITYSGVSTYYADSVKGRFTISRDNAKNTVYLQMNSLKPEDTAVYYCYADWGSVNGYAGYYYWGQGTQVTVSS” the “polyreactivity (PSR sort gate)” value was “low polyreactivity”. With “QVQLVESGGGLVQAGGSLRLSCAASGSTFWYYAMGWYRQAPGKERELVAAITRDGTTYYADSVKGRFTISRDNAKNTVYLQMNSLKPEDTAVYYCAVDIDNWSEYDYWGQGTQVTVSS” the “polyreactivity (PSR sort gate)” value was “low polyreactivity”. For “QVQLVESGGGLVQAGGSLRLSCAASGSTFWYYAMGWYRQAPGKERELVAAITTGGDTTNYADSVKGRFTISRDNAKNTVYLQMNSLKPEDTAVYYCARDTGYDLIVLPDDSWGQGTQVTVSS”, the “polyreactivity (PSR sort gate)” value was “low polyreactivity”. In the case of “QVQLVESGGGLVQAGGSLRLSCAASGSTFWYYGMGWYRQAPGKERELVARINWSTGRTYYADSVKGRFTISRDNAKNTVYLQMNSLKPEDTAVYYCNALNPYKGQEAHYDYWGQGTQVTVSS”, the “polyreactivity (PSR sort gate)” value is reported as “high polyreactivity”. In the case of “QVQLVESGGGLVQAGGSLRLSCAASGSTFWYYTMGWYRQAPGKERELVATISWRGGRTTYADSVKGRFTISRDNAKNTVYLQMNSLKPEDTAVYYCNAERFPGYGGPSRYLYQEYVYWGQGTQVTVSS”, the “polyreactivity (PSR sort gate)” value is reported as “low polyreactivity”. In the case of “QVQLVESGGGLVQAGGSLRLSCAASGSTFYANAMGWYRQAPGKERELVAAIDSGGTTTYADSVKGRFTISRDNAKNTVYLQMNSLKPEDTAVYYCAADQYWYFWYDYWGQGTQVTVSS”, the “polyreactivity (PSR sort gate)” value is reported as “low polyreactivity”. With “QVQLVESGGGLVQAGGSLRLSCAASGSTFYANAMGWYRQAPGKERELVAAITRSGAGTYYADSVKGRFTISRDNAKNTVYLQMNSLKPEDTAVYYCNAGSSFWVSRIGYDYWGQGTQVTVSS” the “polyreactivity (PSR sort gate)” value was “high polyreactivity”. For “QVQLVESGGGLVQAGGSLRLSCAASGSTFYANTMGWYRQAPGKERELVAAISRRGGRTYYADSVKGRFTISRDNAKNTVYLQMNSLKPDDTAVYYCARRGYSSRTIKRYNYWGQGTQVTVSS”, the “polyreactivity (PSR sort gate)” value was “high polyreactivity”. For “QVQLVESGGGLVQAGGSLRLSCAASGSTFYAYTMGWYRKAPGKERELVAGISRRGGTTYYADSVKGRFTISRDNAKNTVYLQMNSLKPEYTAVYYCAADKTKPQASEGYYAYYYWGQGTQVTVSS”, the “polyreactivity (PSR sort gate)” value was “low polyreactivity”. For “QVQLVESGGGLVQAGGSLRLSCAASGSTFYAYTMGWYRQAPGKERELVADISRSGGSTYYADSVKGRFTISRDNAKNTVYLQMNSLKPEDTAVYYCAAASSYYRGHYDYWVQGTQVTVSS”, the “polyreactivity (PSR sort gate)” value was “high polyreactivity”. In the case of “QVQLVESGGGLVQAGGSLRLSCAASGSTFYDNAMGWYRQAPGKERELVARITWNGGRTYYADSVKGRFTISRDNAKNTVYLQMNSLKPEDTAVYYCNAVYWGYGKYDYWGQGTQVTVSS”, the “polyreactivity (PSR sort gate)” value is reported as “high polyreactivity”. With “QVQLVESGGGLVQAGGSLRLSCAASGSTFYDNTMGWYRQPPGKERELVAVITTDGDRTYYADSVKGRFTISRDNAKNTVYLQMKSLKPEDTAVYYCNARRAYWVVYPGDDYWGQGTQVSVSS” the “polyreactivity (PSR sort gate)” value was “low polyreactivity”. In the case of “QVQLVESGGGLVQAGGSLRLSCAASGSTFYDYAMGWYRQAPGKERELVAAISQSGGSTYYADSVKGRFTISRDNAKNTVYLQMNSLKPEDTAVYYCAADSGYSLYDYWGQGTQVTVSS”, the “polyreactivity (PSR sort gate)” value is reported as “low polyreactivity”. With “QVQLVESGGGLVQAGGSLRLSCAASGSTFYDYAMGWYRQAPGKERELVAAISRSGGSTYYADSVKGRFTISRDNAKNTVYLQRNSLKPEDTAVYYCAASRATLLRYGYWGQGTQVTVSS” the “polyreactivity (PSR sort gate)” value was “low polyreactivity”. With “QVQLVESGGGLVQAGGSLRLSCAASGSTFYFNTMGWYRQAPGKERELVAAINSIGGSTYYADSVKGRFTISRDNAKNTVYLQMNSLKPEDTAVYYCAKLKRLYYWSSHTSYGYDYWGQGTQVTVSS” the “polyreactivity (PSR sort gate)” value was “high polyreactivity”. With “QVQLVESGGGLVQAGGSLRLSCAASGSTFYFYAMGWYRQAPGKERELVASITVRGGRTYCADSVKGRFTISRDNAKNTVYLQMNSLKPEDTAVYYCAENWSYRAYDYWGQGTQVTVSS” the “polyreactivity (PSR sort gate)” value was “low polyreactivity”. For “QVQLVESGGGLVQAGGSLRLSCAASGSTFYGNAMGWYRQAPGKERELVAAITGDGGSTYYADSVKGRFTISRDNAKNTVYLQMNSLKPEDTAVYYCAVDVIVLGQWPGQLDEFDYWGQGTQVTVSS”, the “polyreactivity (PSR sort gate)” value was “low polyreactivity”. For “QVQLVESGGGLVQAGGSLRLSCAASGSTFYGNAMGWYRQAPGKERELVAAITWGDASTYYADSVKGRFTISRDNAKNTVYLQMNSLKPEDTAVYYCAADFYYAYYWGQGTQVTVSS”, the “polyreactivity (PSR sort gate)” value was “low polyreactivity”. In the case of “QVQLVESGGGLVQAGGSLRLSCAASGSTFYGYAMGWYRPAPGKERELVAAITIGGRTYYADSVKGRFTISRDNAKNTVYLQMNSLKPEDTAVYYCAAAILRTVPELGSRRTYYYWGQGTQVTVSS”, the “polyreactivity (PSR sort gate)” value is reported as “high polyreactivity”. With “QVQLVESGGGLVQAGGSLRLSCAASGSTFYGYAMGWYRQAPGKERELVAAISSNGDSTYYADSVKGRFTISRDNAKNSVYLQMNILKPEDTAVYYCATDPEGSTGGGYEFWGQGTQVTVSS” the “polyreactivity (PSR sort gate)” value was “low polyreactivity”. In the case of “QVQLVESGGGLVQAGGSLRLSCAASGSTFYGYAMGWYRQAPGKERELVAVINYSGGTTSYADSVKGRFTISRDNAKNTVYLQMNSLKPEDTAVYYCAARRRWAILRYRGNYDYWGQGTQVTVSS”, the “polyreactivity (PSR sort gate)” value is reported as “high polyreactivity”. For “QVQLVESGGGLVQAGGSLRLSCAASGSTFYGYGMGWYREAPGKERELVAAITGSGDTTYYADSVKGRFTISRDNAKNTVYLQMNSLKREDTAVYYCNAGWHAEYDYWGQGTQVTVSS”, the “polyreactivity (PSR sort gate)” value was “low polyreactivity”. With “QVQLVESGGGLVQAGGSLRLSCAASGSTFYHNVMGWSRQAPGKERELVASIDTGDSTNYADSVKGRFTISRDNAKNTVYLQMNSLKPEDTAVYYCNADSYPALNKRGYDYWGQGTQVTVSS” the “polyreactivity (PSR sort gate)” value was “low polyreactivity”. For “QVQLVESGGGLVQAGGSLRLSCAASGSTFYINAMGWYRPAPGKERELVAAITDSGGSTYYADSVKGRFTISRDNAKNTVSLQMNSLKPEDTAVYYCATDGYDPRGYDYWGQGTQVTVSS”, the “polyreactivity (PSR sort gate)” value was “high polyreactivity”. For “QVQLVESGGGLVQAGGSLRLSCAASGSTFYINAMGWYRQAPGKERELVAAISWSGGSTYYADSVKGRFTISRDNAKNTVYLQMNSMKPEDTAVYYCAADWYLGWSLDYDYWGQGTQVTVSS”, the “polyreactivity (PSR sort gate)” value was “low polyreactivity”. For “QVQLVESGGGLVQAGGSLRLSCAASGSTFYIYAMGWYRQAPGKERELVAAINWRTGSTYYADSVKGRFTISRDNAKNTVYLQMNSLKPEDTAVYYCNAYTKHWSYWGQGTQVTVSS”, the “polyreactivity (PSR sort gate)” value was “high polyreactivity”. In the case of “QVQLVESGGGLVQAGGSLRLSCAASGSTFYIYAMGWYRQAPGKERELVAAITEGGGITYYADSVKGRFTISRDNAKNTVYLQMISLKPEDTAVYYCADVWGYYVLPYDYWGQGTQVTVSS”, the “polyreactivity (PSR sort gate)” value is reported as “low polyreactivity”. With “QVQLVESGGGLVQAGGSLRLSCAASGSTFYIYAMGWYRQAPGKERELVAAITWSGGSTYYADSVKGRFTISRDNAKNTVYLQMNSLKPEDTAVYYCAAQVWYSKSPTVDVYFDYDYWGQGTQVTVSS” the “polyreactivity (PSR sort gate)” value was “low polyreactivity”. In the case of “QVQLVESGGGLVQAGGSLRLSCAASGSTFYKYAMGWYRQAPGKERELVASISRSGGSTSYADSVKGRFTISRDNAKNTVYLHMNSLIPEDTAVYYCAATWRQHPGSMGYWGQGTQVTVSS”, the “polyreactivity (PSR sort gate)” value is reported as “high polyreactivity”. With “QVQLVESGGGLVQAGGSLRLSCAASGSTFYKYAMGWYRQAPGKERELVASITWSGTSTYYADSVKGRFTISRDNAKNTVYLQMNSLKPEDTAVYYCNAGLEYYYWGYTWEFDYWGQGTQVTVSS” the “polyreactivity (PSR sort gate)” value was “low polyreactivity”. With “QVQLVESGGGLVQAGGSLRLSCAASGSTFYKYAMGWYRQAPGKERELVAVINYRGGSTYYADSVKGRFTISRDNAKNTVYLQMNSLKPEDTAVYYCAARQYWQNRRQYYYWGQGTQVTVSS” the “polyreactivity (PSR sort gate)” value was “high polyreactivity”. For “QVQLVESGGGLVQAGGSLRLSCAASGSTFYKYDMGWYRQAPGKEREFVAVISWSGGNTYYADSVKGRFTISRDNAKNNVYLQMNSLKPEDTAVYYCAADNYPDEYDYWGQGTQVTVSS”, the “polyreactivity (PSR sort gate)” value was “low polyreactivity”. In the case of “QVQLVESGGGLVQAGGSLRLSCAASGSTFYKYGMGWYRQAPGKERELVAAISGSGDSTYYADSVKGRFTISRDNAKNTVYLQMNSLKPEDTAVYYCNAGPWWYLHEYDYWGQGTQVTVSS”, the “polyreactivity (PSR sort gate)” value is reported as “low polyreactivity”. For “QVQLVESGGGLVQAGGSLRLSCAASGSTFYLNAKGWYRQAPGKERELVAASSSSGGSTYYADSVKGRFTISRDNAKNTVYLQMNSLKPEDTAVYYCACSCVPAVSVYGGDYWGQGTQVTVSS”, the “polyreactivity (PSR sort gate)” value was “low polyreactivity”. In the case of “QVQLVESGGGLVQAGGSLRLSCAASGSTFYLNAMGWYRQAPWKERELVASITWRGGSTYYADSVKGRFTISRDNAKNTVYLQMNSLKPEDTGVYYCAADATRLRTRYKRDYWGQGSQVTVSS”, the “polyreactivity (PSR sort gate)” value is reported as “high polyreactivity”. In the case of “QVQLVESGGGLVQAGGSLRLSCAASGSTFYLNDMGWYRQAPGKERELVAAIDWSGGSTYYAVSVKGRFTISRDNAKNTVYLQMNSLKPEDTAVYYCAARLVYEWRRLDYFIAWDYWGQGTQVTVSS”, the “polyreactivity (PSR sort gate)” value is reported as “low polyreactivity”. With “QVQLVESGGGLVQAGGSLRLSCAASGSTFYLYAMGWYRPAPGKERELVASITSGDGSTYYADSVKGRFTISRDNAKNTVYLQMNSLKPEDTAVYYCNAVLEGWFYQYDYWGQGTQVTVSS” the “polyreactivity (PSR sort gate)” value was “low polyreactivity”. In the case of “QVQLVESGGGLVQAGGSLRLSCAASGSTFYLYAMGWYRQAPGKERELVASITSGDGSTYYADSVKGRFTISRDNAKNTVYLQMNSLKPEDTAVYYCNAVLEGWFYQYDYWGQGTQVTVSS”, the “polyreactivity (PSR sort gate)” value is reported as “low polyreactivity”. In the case of “QVQLVESGGGLVQAGGSLRLSCAASGSTFYLYAMGWYRQAPWKEREFVARITWSGGSTYYADSVKGRFTISRDNAKNTVYLQMNSLKPEDTAVYYCNATKTGPATVRYYYWGQGTQVTVSS”, the “polyreactivity (PSR sort gate)” value is reported as “high polyreactivity”.
